From patent publication US20240415886A1 come the findings set out here.

For experiment [1], the target named is mutated p53^R175H peptide (…) presented by HLA-A2 on target cells (human). The experiment in a line: cell-based or functional assay.
Experiment [2] addresses p53^R175H/HLA-A2 tetramer labeled with PE (p53^R175H peptide … with Flex-T HLA-A*02:01 monomer, Biolegend cat #280003) (human). The experiment in a line: flow cytometry, PE tetramer staining of gated CD8+GFP+ TCR-transduced primary T cells.

B1: inventive TCR specific for the mutated p53^R175H peptide in the context of HLA-A2, with murine alpha and beta constant regions, expressed from lentiviral … (TCR)
TCR alpha: GIQVEQSPPDLILQEGANSTLRCNFSDSVNNLQWFHQNPWGQLINLFYIPSGTKQNGRLSATTVATERYSLLYISSSQTTDSGVYFCAVNQAGTALIFGKGTTLSVSSNIQNPEPAVYQLKDPRSQDSTLCLFTDFDSQINVPKTMESGTFITDKTVLDMKAMDSKSNGAIAWSNQTSFTCQDIFKETNATYPSSDVPCDATLTEKSFETDMNLNFQNLSVMGLRILLLKVAGFNLLMTLRLWSS
TCR beta: EPEVTQTPSHQVTQMGQEVILRCVPISNHLYFYWYRQILGQKVEFLVSFYNNEISEKSEIFDDQFSVERPDGSNFTLKIRSTKLEDSAMYFCASMGTGDEAFFGQGTRLTVVEDLRNVTPPKVSLFEPSKAEIANKQKATLVCLARGFFPDHVELSWWVNGKEVHSGVSTDPQAYKESNYSYCLSSRLRVSATFWHNPRNHFRCQVQFHGLSEEDKWPEGSPKPVTQNISAEAWGRADCGITSASYQQGVLSATILYEILLGKATLYAVLVSTLVVMAMVKRKNS
In experiment [1], B1 registered an avidity (lowest activating peptide concentration), CD8+ primary T cells against CD8-negative JRT cells of 10 fold; a percentage of CD8+CD137+ cells in the gated GFP+ cells of 1 ng/mL; a percentage of CD69+ cells in the gated GFP+ JRT cells of 10 ng/mL.

B2: inventive TCR specific for the mutated p53^R175H peptide in the context of HLA-A2, with murine alpha and beta constant regions, expressed from lentiviral … (TCR, V domains shown)
V domain 1: GIQVEQSPPDLILQEGANSTLRCNFSDSVNNLQWFHQNPWGQLINLFYIPSGTKQNGRLSATTVATERYSLLYISSSQTTDSGVYFCAVNQAGTALIFGKGTTLSVSS
V domain 2: EPEVTQTPSHQVTQMGQEVILRCVPISNHLYFYWYRQILGQKVEFLVSFYNNEISEKSEIFDDQFSVERPDGSNFTLKIRSTKLEDSAMYFCASMGTGDEAFFGQGTRLTVVE
In experiment [2], B2 returned a percent of cells binding tetramer of 82.9%.
